Experimental findings from patent publication US20230265151A1, “GIP/GLP1 CO-AGONIST COMPOUNDS” (priority 2020, published 2023) are described below.

*1 amine or outer side, *2 acyl side, *3 side chain or, on linkers, in order; H or OH if unused. Where no end group is shown, it is not given here. Side-chain parts run from the residue outwards. [ ]: non-standard residue; d: D form. The star is where a group is joined. Decanoyl(10-(4-HOOC-PhO)) = O=C(O)c1ccc(OCCCCCCCCCC(=O)*)cc1; αMePhe(2-F) = C[C@](N)(Cc1ccccc1F)C(=O)O; γGlu = O=C(O)[C@H](CCC(=O)[*:2])N[*:1]; αMeY = C[C@](N)(Cc1ccc(O)cc1)C(=O)O; αMeL = CC(C)C[C@](C)(N)C(=O)O; Nle = CCCC[C@H](N)C(=O)O; Orn = NCCC[C@H](N)C(=O)O; AEEA = NCCOCCOCC(=O)O; Aib = CC(C)(N)C(=O)O Some results are limits rather than exact numbers.

Among the targets are human glucagon receptor (human, UniProt P47871 26-477); human GLP-1 receptor (human, UniProt P43220 24-463); hGLP-1R (Homo sapiens, UniProt P43220).
Experiment in all cases: cell-based or functional assay
The target of the next experiment is T1, human GIP receptor (human, UniProt P48546 22-466).
T1 sequence (looked up): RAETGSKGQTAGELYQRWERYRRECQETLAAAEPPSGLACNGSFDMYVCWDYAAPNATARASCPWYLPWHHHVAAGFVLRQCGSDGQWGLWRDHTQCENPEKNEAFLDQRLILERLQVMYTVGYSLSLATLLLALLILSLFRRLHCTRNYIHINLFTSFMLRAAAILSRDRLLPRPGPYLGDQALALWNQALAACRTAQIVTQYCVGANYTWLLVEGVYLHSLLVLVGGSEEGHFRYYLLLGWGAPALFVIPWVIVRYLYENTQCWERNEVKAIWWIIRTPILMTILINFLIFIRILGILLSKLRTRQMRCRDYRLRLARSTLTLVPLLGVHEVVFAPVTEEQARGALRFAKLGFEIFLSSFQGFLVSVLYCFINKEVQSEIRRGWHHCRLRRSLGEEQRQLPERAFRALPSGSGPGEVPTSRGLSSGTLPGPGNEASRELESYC

Experiment [1] concerns the target human glucagon receptor (human) (UniProt P47871).
The target in experiment [2] is T2, human GIP receptor (human) (UniProt P48546).
T2 sequence (looked up): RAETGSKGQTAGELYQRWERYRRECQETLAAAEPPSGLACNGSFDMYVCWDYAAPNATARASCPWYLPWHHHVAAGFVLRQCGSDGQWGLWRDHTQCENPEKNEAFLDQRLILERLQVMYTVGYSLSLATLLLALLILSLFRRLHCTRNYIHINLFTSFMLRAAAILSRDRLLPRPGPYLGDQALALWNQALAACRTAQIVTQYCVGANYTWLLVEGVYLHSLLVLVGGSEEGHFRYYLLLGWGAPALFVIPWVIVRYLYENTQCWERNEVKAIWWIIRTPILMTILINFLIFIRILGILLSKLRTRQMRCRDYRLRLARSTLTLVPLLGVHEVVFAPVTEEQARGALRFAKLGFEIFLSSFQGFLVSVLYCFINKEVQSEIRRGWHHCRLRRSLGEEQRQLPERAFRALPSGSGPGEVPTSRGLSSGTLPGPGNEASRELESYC

B1: Example 333 (peptide)
peptide: Y[Aib]EGT[αMePhe(2-F)]TSD[Nle]SI[αMeL]LD[Orn]IAQ[Aib]K([AEEA-AEEA-γGlu-Decanoyl(10-(4-HOOC-PhO))])FI[dE][αMeY]LIK([AEEA-AEEA-γGlu-Decanoyl(10-(4-HOOC-PhO))])GGPSSGAPPPS-NH2
modifications: N-terminus assumed
SMILES: CCCC[C@H](NC(=O)[C@H](CC(=O)O)NC(=O)[C@H](CO)NC(=O)[C@@H](NC(=O)[C@](C)(Cc1ccccc1F)NC(=O)[C@@H](NC(=O)CNC(=O)[C@H](CCC(=O)O)NC(=O)C(C)(C)NC(=O)[C@@H](N)Cc1ccc(O)cc1)[C@@H](C)O)[C@@H](C)O)C(=O)N[C@@H](CO)C(=O)N[C@H](C(=O)N[C@@](C)(CC(C)C)C(=O)N[C@@H](CC(C)C)C(=O)N[C@@H](CC(=O)O)C(=O)N[C@@H](CCCN)C(=O)N[C@H](C(=O)N[C@@H](C)C(=O)N[C@@H](CCC(N)=O)C(=O)NC(C)(C)C(=O)N[C@@H](CCCCNC(=O)COCCOCCNC(=O)COCCOCCNC(=O)CC[C@H](NC(=O)CCCCCCCCCOc1ccc(C(=O)O)cc1)C(=O)O)C(=O)N[C@@H](Cc1ccccc1)C(=O)N[C@H](C(=O)N[C@H](CCC(=O)O)C(=O)N[C@@](C)(Cc1ccc(O)cc1)C(=O)N[C@@H](CC(C)C)C(=O)N[C@H](C(=O)N[C@@H](CCCCNC(=O)COCCOCCNC(=O)COCCOCCNC(=O)CC[C@H](NC(=O)CCCCCCCCCOc1ccc(C(=O)O)cc1)C(=O)O)C(=O)NCC(=O)NCC(=O)N1CCC[C@H]1C(=O)N[C@@H](CO)C(=O)N[C@@H](CO)C(=O)NCC(=O)N[C@@H](C)C(=O)N1CCC[C@H]1C(=O)N1CCC[C@H]1C(=O)N1CCC[C@H]1C(=O)N[C@@H](CO)C(N)=O)[C@@H](C)CC)[C@@H](C)CC)[C@@H](C)CC)[C@@H](C)CC
Consider B1, for which the “cAMP EC50 (1.0% HSA)” value in the experiment with human GIP receptor was 6.74 nM; with human glucagon receptor, more than 9950 nM; with human GLP-1 receptor it was 70.4 nM.

B2: Example 292 (peptide)
peptide: YXEGTXTSDKXIXLDXKAQXEFIXXLIEGGPSSGAPPPS
modifications: Y-Aib-EGT-αMeF(2F)-TSDK((2-[2-(2-Amino-ethoxy)-ethoxy]-acetyl)2-(γ-Glu)-CO-(CH2)10-CH3)-Aib-I-αMeL-LD-Orn-K((2-[2-(2-Amino-ethoxy)-ethoxy]-acetyl)2-(γ-Glu)-CO-(CH2)10-CH3)AQ-Aib-EFI-(D-Glu)-αMeY-LIEGGPSSGAPPPS-NH2
For B2, the results for the cAMP EC50 (in the experiment with hGLP-1R; in experiment [1]; in experiment [2]) were 0.0758 nM, more than 9950 nM and 0.0062 nM, respectively. The molecule further had a cAMP Emax with hGLP-1R of 104%. Further, the “cAMP EC50 (1.0% HSA)” value with human GIP receptor is 0.416 nM; with human glucagon receptor it was more than 9950 nM; in the experiment with human GLP-1 receptor, 4.35 nM.

B3: Example 298 (peptide)
peptide: YXEGTXTSDXSIXLDXKAQXKFIXXLIXGGPSSGAPPPS
modifications: Y-Aib-EGT-αMeF(2F)-TSD-4Pal-SI-αMeL-LD-Orn-K((2-[2-(2-Amino-ethoxy)-ethoxy]-acetyl)2-(γ-Glu)-CO-(CH2)10-CH3)AQ-Aib-K((2-[2-(2-Amino-ethoxy)-ethoxy]-acetyl)2-(γ-Glu)-CO-(CH2)10-CH3)FI-(D-Glu)-αMeY-LI-Orn-GGPSSGAPPPS-NH2
Turning to B3, the results for the cAMP EC50 (with hGLP-1R; in experiment [1]) were 0.19 nM and more than 9950 nM, respectively. For the same molecule, the cAMP Emax in the experiment with hGLP-1R was determined as 106%; in experiment [2], 97.4%. For the same molecule, the “cAMP EC50 (1.0% HSA)” value is 0.237 nM in the experiment with human GIP receptor, more than 9950 nM with human glucagon receptor and 3.64 nM with human GLP-1 receptor. In the experiment with human GIP receptor, the “cAMP Emax (1.0% HSA)” value is 95%.

B4: Example 345 (peptide)
peptide: YXEGTXTSDXXIXLDXIAQXEFIKXLIKGGPSSGAPPPS
modifications: Y-Aib-EGT-αMeF(2F)-TSD-4Pal-Aib-I-αMeL-LD-Orn-IAQ-Aib-EFIK((2-[2-(2-Amino-ethoxy)-ethoxy]-acetyl)3-(γ-Glu)-(10-(4-carboxyphenoxy)decanoyl))-αMeY-LIK((2-[2-(2-Amino-ethoxy)-ethoxy]-acetyl)3-(γ-Glu)-(10-(4-carboxyphenoxy)decanoyl))GGPSSGAPPPS-NH2
As to B4, the entries for the “cAMP EC50 (1.0% HSA)” value with human GIP receptor, in the experiment with human glucagon receptor and with human GLP-1 receptor were 0.731 nM, more than 9950 nM and 11.8 nM, respectively.

B5: Example 343 (peptide)
peptide: YXEGTXTSDYXIXLDXIAQXEFIKXLIKGGPSSGAPPPS
modifications: Y-Aib-EGT-αMeF(2F)-TSDY-Aib-I-αMeL-LD-Orn-IAQ-Aib-EFIK((2-[2-(2-Amino-ethoxy)-ethoxy]-acetyl)3-(γ-Glu)-CO-(CH2)12-CO2H)-αMeY-LIK((2-[2-(2-Amino-ethoxy)-ethoxy]-acetyl)3-(γ-Glu)-CO-(CH2)12-CO2H)GGPSSGAPPPS-NH2
On to B5, for which the “cAMP EC50 (1.0% HSA)” value is 2.38 nM with human GIP receptor, more than 9950 nM in the experiment with human glucagon receptor and 20.2 nM with human GLP-1 receptor. Besides, the “cAMP Emax (1.0% HSA)” value with human GIP receptor amounted to 90.2%; with human GLP-1 receptor it was 98.2%.

B6: Example 342 (peptide)
peptide: YXEGTXTSDXXIXLDXIAQXEFIKXLIKGGPSSGAPPPS
modifications: Y-Aib-EGT-αMeF(2F)-TSD-4Pal-Aib-I-αMeL-LD-Orn-IAQ-Aib-EFIK((2-[2-(2-Amino-ethoxy)-ethoxy]-acetyl)3-(γ-Glu)-CO-(CH2)12-CO2H)-αMeY-LIK((2-[2-(2-Amino-ethoxy)-ethoxy]-acetyl)3-(γ-Glu)-CO-(CH2)12-CO2H)GGPSSGAPPPS-NH2
For B6, the “cAMP EC50 (1.0% HSA)” value with human GIP receptor was 1.04 nM; with human glucagon receptor it was more than 9950 nM; in the experiment with human GLP-1 receptor, 13.6 nM.

B7: Example 346 (peptide)
peptide: YXEGTXTSDYXIXLDXIAQXEFIKXLIKGGPSSGAPPPS
modifications: Y-Aib-EGT-αMeF(2F)-TSDY-Aib-I-αMeL-LD-Orn-IAQ-Aib-EFIK(2-[2-(2-Amino-ethoxy)-ethoxy]-acetyl)3-(γ-Glu)-(10-(4-carboxyphenoxy)decanoyl)-αMeY-LIK((2-[2-(2-Amino-ethoxy)-ethoxy]-acetyl)3-(γ-Glu)-(10-(4-carboxyphenoxy)decanoyl)GGPSSGAPPPS-NH2)
As to B7, the figures for the “cAMP EC50 (1.0% HSA)” value with human GIP receptor, with human glucagon receptor and with human GLP-1 receptor were 1.83 nM, more than 9950 nM and 19 nM, respectively. Further, the “cAMP Emax (1.0% HSA)” value in the experiment with human GIP receptor came to 83.9%; with human GLP-1 receptor, 97.7%.

B8: Example 299 (peptide)
peptide: YXEGTXTSDXSIXLDXKAQXXFIXXLIKGGPSSGAPPPS
modifications: Y-Aib-EGT-αMeF(2F)-TSD-4Pal-SI-αMeL-LD-Orn-K((2-[2-(2-Amino-ethoxy)-ethoxy]-acetyl)2-(γ-Glu)-CO-(CH2)10-CH3)AQ-Aib-Orn-FI-(D-Glu)-αMeY-LIK((2-[2-(2-Amino-ethoxy)-ethoxy]-acetyl)2-(γ-Glu)-CO-(CH2)10-CH3)GGPSSGAPPPS-NH2
As for B8, the cAMP EC50 in the experiment with hGLP-1R was 0.126 nM; in experiment [1] it was more than 9950 nM; in experiment [2], 0.0104 nM. For the same molecule, the cAMP Emax was found to be 103% with hGLP-1R and 101% in experiment [2]. For the same molecule, the “cAMP EC50 (1.0% HSA)” value was 0.204 nM with human GIP receptor, more than 9950 nM with human glucagon receptor and 2.58 nM with human GLP-1 receptor. The “cAMP Emax (1.0% HSA)” value in the experiment with human GLP-1 receptor was determined as 102%.
